Source: PMC7948958

Key:
[1] = target: rabbit skeletal actin filaments (rabbit) (UniProt P68135)
[2] = target: rabbit skeletal actin filaments (rabbit) (UniProt P68135); remark: listed apart in the source
[3] = target: pyrene-labeled rabbit skeletal actin filaments (rabbit) (UniProt P68135); test: other fluorescence titration; stopped-flow, quenching of pyrene-actin fluorescence; 0.05-0.3 μM EGFP-M15-2IQ mixed with 0.5-3 μM pyrene actin; nucleotide-free (apyrase-treated); apparent rate constants from linear fit of kobs against [actin], KD calculated as k-6/k+6; 20-mM Mops (pH 7.0), 100-mM KCl, 5-mM MgCl2, 0.1-mM EGTA, 20 °C
[4] = target: pyrene-labeled rabbit skeletal actin filaments (rabbit) (UniProt P68135); test: other fluorescence titration; stopped-flow, quenching of pyrene-actin fluorescence; 0.05-0.3 μM EGFP-M15-2IQ mixed with 0.5-3 μM pyrene actin; with saturating ADP (0.5 mM in the text, 1 mM in the legend), apyrase omitted; apparent rate constants from linear fit of kobs against [actin], KD …; 20-mM Mops (pH 7.0), 100-mM KCl, 5-mM MgCl2, 0.1-mM EGTA, 20 °C

actin-activated steady-state ATPase (NADH assay, 10-mM KCl, 20 °C), K ATPase; myosin from the Sf9-UNC45A cell line [1] [mM]	actin-activated steady-state ATPase (NADH assay, 10-mM KCl, 20 °C), K ATPase; myosin from the Sf9-UNC45B cell line [1] [mM]	actin-activated steady-state ATPase (NADH assay, 10-mM KCl, 20 °C), K ATPase; myosin from Sf9 coexpressing UNC45A (baculovirus) [1] [mM]	actin-activated steady-state ATPase (NADH assay, 10-mM KCl, 20 °C), K ATPase; myosin from Sf9 coexpressing UNC45B (baculovirus) [1] [mM]	actin-activated phosphate release (double-mixing stopped flow, MDCC-PbP), apparent association rate constant K9·k′+4 of M·ADP·Pi with actin, from the fast phase against [actin] up to 50 μM [2] [M⁻¹ s⁻¹]	Kd [3] [µM]	koff [3] [s⁻¹]	kon [3] [M⁻¹ s⁻¹]	Kd [4] [µM]	koff [4] [s⁻¹]	kon [4] [M⁻¹ s⁻¹]	Substance
0.0052	0.007										M15-2IQ-EGFP motor domain complex (M15-2IQ-EGFP:ELC:RLC) (from UniProt Q9QZZ4-3 1-743; P60661 1-151)
		0.0061	0.0104	130000	0.2	0.65	3.18e+06	0.31	0.55	1.75e+06	EGFP-M15-2IQ motor domain complex (EGFP-M15-2IQ:ELC:RLC) (from UniProt Q9QZZ4-3 1-743; P60661 1-151)
